Measurements: patent publication US20220033501A1 (SHANGHAI PHARMAEXPLORER, published 2022)
Where a chain is given by its changes, count along the chain named. Each block holds one binder with its values, some of them ahead of it.

Legend:
[1] = target: T1, human TIM-3 on CHOK1 stable cell line (CHOK1-hTIM-3) (human, UniProt Q8TDQ0 22-301); test: FACS, CHOK1-hTIM-3 cells, 8 nM antibody
T1 sequence: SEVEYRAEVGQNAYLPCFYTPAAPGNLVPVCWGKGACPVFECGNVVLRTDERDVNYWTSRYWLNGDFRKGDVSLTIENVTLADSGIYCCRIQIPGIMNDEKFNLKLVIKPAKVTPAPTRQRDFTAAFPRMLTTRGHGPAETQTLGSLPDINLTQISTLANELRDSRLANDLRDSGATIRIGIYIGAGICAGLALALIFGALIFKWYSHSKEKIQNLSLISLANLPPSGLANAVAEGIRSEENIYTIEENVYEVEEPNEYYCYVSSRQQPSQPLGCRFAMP

[2] = target: T1, human TIM-3 on CHOK1 stable cell line …; test: FACS, CHOK1-hTIM-3 cells, 1.6 nM antibody
[3] = target: T2, monkey TIM-3 on CHOK1 stable cell line (CHOK1-cTIM-3) (monkey); test: FACS, CHOK1-cTIM-3 cells, 1.6 nM antibody
T2 chain: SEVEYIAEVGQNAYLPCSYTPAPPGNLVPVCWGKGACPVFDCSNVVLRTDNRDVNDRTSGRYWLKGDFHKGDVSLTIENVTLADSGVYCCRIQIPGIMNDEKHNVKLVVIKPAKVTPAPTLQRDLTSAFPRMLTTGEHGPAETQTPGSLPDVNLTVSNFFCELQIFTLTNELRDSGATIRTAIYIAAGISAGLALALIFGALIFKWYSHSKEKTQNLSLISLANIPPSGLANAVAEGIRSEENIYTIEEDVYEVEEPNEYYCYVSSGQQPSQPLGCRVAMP

[4] = target: T3, human TIM-3 extracellular domain protein with hFc tag (hTIM-3-hFc) (human, UniProt Q8TDQ0 22-200); test: ELISA, coated human TIM-3 ECD protein, 0 nM antibody
T3 construct: not shown: human IgG Fc fragment (hFc) of the pCpC vector
T3 sequence: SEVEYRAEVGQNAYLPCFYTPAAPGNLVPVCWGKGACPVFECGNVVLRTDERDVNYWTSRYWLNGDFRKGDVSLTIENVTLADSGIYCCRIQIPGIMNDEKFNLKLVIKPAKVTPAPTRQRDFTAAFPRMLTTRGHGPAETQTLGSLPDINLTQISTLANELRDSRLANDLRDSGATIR

[5] = target: T3, human TIM-3 extracellular domain …; test: ELISA, coated human TIM-3 ECD protein, 0.0067 nM antibody
[6] = target: T3, human TIM-3 extracellular domain …; test: ELISA, coated human TIM-3 ECD protein, 0.0667 nM antibody

Mean fluorescence intensity [1]: 268 | Mean fluorescence intensity [2]: 232 | Mean fluorescence intensity [3]: 333 | OD450 [4]: 0.07 | OD450 [5]: 0.32 | OD450 [6]: 1.57
B1: 18D2H2 fully human TIM-3 antibody (human IgG4, kappa) (antibody, V domains shown)
VH: EVQLVESGGDLVQPGGSLRLSCAASGFTFSTYWMTWVRQAPGRGLEWVANIKQDGSAKYYVDSVKGRFTLSRDDAKNSLYLQMNSLRAEDTAVYYCARGSNWFDYWGQGTLVTVSS
VL: ETVMTQSPATLSVSPGERATLSCRANQNVYSNLAWYQQKPGQAPRLLIYDASTRATGFPARFSGSGSGTEFTLTISSLQSEDFAVYYCQQYNNWPLTFGGGTKVEIK

Mean fluorescence intensity [1]: 219 | Mean fluorescence intensity [2]: 212 | Mean fluorescence intensity [3]: 266 | OD450 [4]: 0.09 | OD450 [5]: 0.29 | OD450 [6]: 1.58
B2: 34B6D8 fully human TIM-3 antibody (human IgG4, kappa) (antibody, V domains shown)
VH: B1 VH with D10G, R43K, G44R, D54G, S56G, A57D, L70I, R72T, D74N, Y105P
VL: EIVMTQSPATLSMSPGERATLSCRASQSVYDNLAWYQQKPGQAPRLLIYGASTRATGIPARFSGSGSGTEFTLTISSLQSEDFALYYCQQYTHWPITFGQGTRLEIK

Mean fluorescence intensity [1]: 234 | Mean fluorescence intensity [2]: 191 | Mean fluorescence intensity [3]: 315 | OD450 [4]: 0.08 | OD450 [5]: 0.25 | OD450 [6]: 1.33
B3: 39E5H1 fully human TIM-3 antibody (human IgG4, kappa) (antibody, V domains shown)
VH: EVQLVESGGGLVQPGGSLRLSCAASGFTFSSYWMSWVRQAPGKGLEWVANIKRGGSERYYVDSVKGRFTISGDNAKNSVYLQMNSLRAEDTAVYYCARGSNWFDPWGQGTLVTVSS
VL: B2 VL with I2T, T10I, M13V, D31S, P40L, G50D, L85V, T92N, H93N
